Source: the nanobody polyreactivity screen of Harvey et al. (2022)

Test: yeast display, Sf9 membrane polyspecificity reagent, FACS + sequencing; frameworks hold sequencing errors
Method in brief: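 A synthetic nanobody library was expressed on Saccharomyces cerevisiae BJ5465 by galactose induction for 36–48 hours. The library was stained for 1 hour at 4 °C with 10% biotinylated, detergent-solubilized Sf9 membrane reagent and enriched with streptavidin microbeads before FACS. Low and high (top ~1%) gates were set on anti-HA fluorescence for expression and streptavidin fluorescence for reagent binding, and each polyreactivity label reflects the gate of origin.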
For “QVQLVESGGGLVQAGGSLRLSCAASGRILAAYTMGWYRQAPGKERELVAAITRGGSRTNYADSVKGRFTISRDNAKNTVYLQMNSLKPEDTAVYYCAATWSAYRRWGYDYWGQGTQVTVSS”, the “polyreactivity (PSR sort gate)” value was “high polyreactivity”.
With “QVQLVESGGGLVQAGGSLRLSCAASGSTFAGNAMGWYRHAPGKERELVAAIDSSTGSTYYADSVKGRFTISLDNAKNTVYLQMNSLKPEDTAVYYCNKTSFLVKLDFWGQGTQVTVSS” the “polyreactivity (PSR sort gate)” value was “low polyreactivity”.
For “QVQLVESGGGLVQAGGSLRLSCAASGSIFIGYARGWYRQAPGKERELVAGISWSGGSTYYADSVKGRFSISRDNAKNTVYLQMNSLKPEDTAVYYCNADITLYYFWAWTYGYYYWGQGTQVTVSS”, the “polyreactivity (PSR sort gate)” value was “high polyreactivity”.
For “QVQRVESGGGLVQAGGSLRLSCAASGFIFPWYAMGWYRQAPGKESELVAAISRGGRTNYADSVKGRFTISRDNAKNTVYLQMNSLKPEDTAVYYCAKKYYLSGSRADDSGGQGTQVTVSS”, the “polyreactivity (PSR sort gate)” value was “high polyreactivity”.
In the case of “QVQLVESGGGLVQAGGSLRLSCAASGGTFAANDMGWYRQAPGKEREFVAAIDWSGGSTYYADSVKGRFTISRDNAKNTVYLQMNSLKPVDTAVYYCNAGPAVRSAYSTPYYDYWGQGTQVTVSS”, the “polyreactivity (PSR sort gate)” value is reported as “low polyreactivity”.
With “QVQLVESGGGLVQAGGSLRLSCAASGSIFRVYMGWYRQAPGKERELVATIRWSSGSTYYADSVKGRFTISRDNAKNTVYLQMNSLKPEDTAVYYCAVKGPYYDDYDYWGQGTQVTVSS” the “polyreactivity (PSR sort gate)” value was “low polyreactivity”.
In the case of “QVQLVESGGGLVQAGGSLRLSCAASGSIFDDYAMGWYRQAPGKERELVAAIDYTGGSTYYADSVKGRFTISRDNAKNTVYLQMNSLIPEDTAVYYCAAEVRVYYYLGGGYSWGQGTQVTVSS”, the “polyreactivity (PSR sort gate)” value is reported as “low polyreactivity”.
In the case of “QVQLVESGGGLVQAGGSLRLSCAASGSTFSYNAMGWYRQAPGKERELVAAISRSGGSTYYADSVKGRFTISRDNAKNTVYLQIKSLKPEFTAVYYFAADSPYGYYEGDYWGQGTQVTVSS”, the “polyreactivity (PSR sort gate)” value is reported as “low polyreactivity”.
With “QVQLVESGGGLVQAGGSLRLSCAASGFNFPVNAMGWYRQAPGTERELVASITRSGGRTYYADSVKGRLTISRDNAKNTVYLQMNSLKPEDTAVYYCAARYLQEYVYEYDYWGQGTQVTVSS” the “polyreactivity (PSR sort gate)” value was “high polyreactivity”.
In the case of “QVQLVESGGGLVQAGGSLRLSCAASGSIFAKNAMGWYRQAPGKERELVAAISSSGGRTYYADSVKGRFTISRDNAKNTVYLQMNSLKPEDTAVYYCAADLRYIYWSYYYWGQGTQVTVSS”, the “polyreactivity (PSR sort gate)” value is reported as “low polyreactivity”.
With “QVQLVESGGGLVQAGGSLRLSCAASGFTFRYNAMGWYRQAPGKERELVAAITWRGGRTYYADSVKGRFTISRDNAKNTVYLQMNSLKPEDTAVYYCAVYRTSTRYVVDSDYWGQGTQVTVSS” the “polyreactivity (PSR sort gate)” value was “low polyreactivity”.
In the case of “QVQLVESGGGLVPAGGSLRLSCAASGSIFPVYAMGWYRQAPGKERELVASISTGGSTYYADSVKGRFTISRDNAKNTVYLQMNSLKPEDNAVYYCDATGWAYGYGYWGQGTQVTVSS”, the “polyreactivity (PSR sort gate)” value is reported as “low polyreactivity”.
With “QVQLVESGGGLLQAGGSRRIRCAASGRIFWVYAMGWYRKAPGKERELVAAISSTGDGTYYADSVKVRFTISRDNAKNSVYLEMNSLKPDDTAVYYCAADFRVARSPLSGGSDFWGQGTQVTVSS” the “polyreactivity (PSR sort gate)” value was “low polyreactivity”.
With “QVQLVESGGGLVQAGGSLRLSCAASGRIFRPYVMGWYRQAPGKERELVAAISYRGSSTYYADSVKGRFTISRDNAKNTVYLQMNSLKPEDTAVYYCAAYPRVYWTKEYDYWGQGTQVTVSS” the “polyreactivity (PSR sort gate)” value was “high polyreactivity”.
With “QVQHVESGGGLVQAGGSHRLSCAASGSIYWWNAMGWYRQAPGKERELVAAISFSGGSTYYADSVKGRFTISRDNAKNTVYLQMNSLKPEDTAVYYCAAEAYDDYDYWGQGTQVTVSS” the “polyreactivity (PSR sort gate)” value was “low polyreactivity”.
For “QVQLVESGGGLVQAGGSLRLSCAASGNIFGYYVMGWYRPAPGKERELVAGISSGDSTDYADSVKGRFTISRDNAKNTVYLQMNSLKPEDTAVYYCNADWNPTERWFYWYTPLGYDYWGQGTQVTVSS”, the “polyreactivity (PSR sort gate)” value was “low polyreactivity”.
With “QVQLVESVGGLVQAGGSLRLSCAASGNTFRRNVMGLYRQAPGKERELVAAINRGGSTYYADSVKGRFTISRDNAKNTVYLQMNSLKPEDTAVYYCNAVTRGYYHEMEYWGQGTQVTVSS” the “polyreactivity (PSR sort gate)” value was “high polyreactivity”.
With “QVQLVESGGGLVQAGGSLRLSCAASGSTFWWNTMGWYRQAPGKESELVADIRTSGGGTYYADSVKGRFTISRDNAKNTVYLQMNSLKPEDTAVYYCNADPKWEMGSWGQGTQVTVSS” the “polyreactivity (PSR sort gate)” value was “low polyreactivity”.
With “QVQLVESGGGLVQAGVSLRLSCAASGIILRYYVMGWYRQAPGKERELVAAITSRGGSTYYADSVKGRFTISRDNAKNTVYLQMNSLKPEDTAVYYCAAGYRNVNTFDYWGQGTQVTVSS” the “polyreactivity (PSR sort gate)” value was “high polyreactivity”.
With “QVQLVESGGGLVQAGGSLRLSCADSGRIIPSYDMGWYRQAPGKERELVAVIRSSVDGTYYADSVKGRFTISRDNAKNTVYLQMNSLKPEDTAVYDCAADSLTPKSASDYWGQGTQVTVSS” the “polyreactivity (PSR sort gate)” value was “low polyreactivity”.
In the case of “QVQLVESGGGLVQAGGSLRLSCAASGLTFKYYAMGWYRQAPGKERELVAAITSTGGRTYYADSVKGRFTISRDNAKNTVYLQMNSLKPEDTAFYYCAAYYVGSSKYDSWGQGTQVTVSS”, the “polyreactivity (PSR sort gate)” value is reported as “low polyreactivity”.
With “QVQLVESGGGLVQAGGSLRLSCADSGFTFWYYDMGWYRQAPGKERELVAAITNGGRTYYADSVKGRFTISRDNAKNTVYLQMNSLKPEDTAVYYCAVLGGHGFYQGDYWGQGTQVTVSS” the “polyreactivity (PSR sort gate)” value was “high polyreactivity”.
With “QVQLVESGGGLVQAGGSLRLSCDASGSIFTPYAMGWYRQAPGKERELVAAINWNGGRTYYADSVKGRFTISRDNAKNRVYLQMNCLKPEDTAVYYCFLYYWANYPYNYWGQGTQVNVSS” the “polyreactivity (PSR sort gate)” value was “low polyreactivity”.
In the case of “QVQLVESGGGLVQAGGSLRLSCAASGRTFRGNAMGWYRQATGKERELVDVITASGSTTYADSVKGRFTISRDNAKNTVYLQLYSLKPEDTAVYYCAKYVPWYTLWLGGTDRDYWGQGTQVTVSS”, the “polyreactivity (PSR sort gate)” value is reported as “low polyreactivity”.
For “QVQLVESGGGLVQAGGSLRLSCAASGSILVDYAMGWYRQAPGKERELVASITRDGSTNYADSVKGRFTISRDNAKNTVYLQMNSLKPEDTAVYYCAAKYAWRLLEMYYWGQGTQVTVSS”, the “polyreactivity (PSR sort gate)” value was “low polyreactivity”.
With “QVQLEESGGGLVQAGGSLRLSCAASGFIFDSYAMGWYRQAPGKERELVAAISWSGGRTYYADSVKGRFTISRDNAKNTVYLQMNSLKPEDTAVYYCNVLVHSLSGRKYDYWGQGTQVTVSS” the “polyreactivity (PSR sort gate)” value was “high polyreactivity”.
With “QVQLVESGGGLVQAGGRLRLSCAASGGIFSAYAMGWYRQAPGTERELVAAISSGGSTKYADSVKGRVTISRDNAQNTVYLQMNSLKPEDTAVYYCAVLYIRWYTYEYWGQGAQVTVSS” the “polyreactivity (PSR sort gate)” value was “high polyreactivity”.
With “QVQLVESGGGLVQAGGSLRLSCAASGRNFILNAMGWYRQAPGKERELVAAISWSGGSTYYADSVKGRFTISRDNAKNTVYLQMNSLKPEDTAVYYCAAETYAYLFHTYDYWGQGTQVTVSS” the “polyreactivity (PSR sort gate)” value was “low polyreactivity”.
In the case of “QVQLVESGGGLVQAGGSLRLSCAASGSTFVKNAMGWYRQAPGKERELVAAISYRGGRTYYADSVKGRFTISRDNAKNTVYLQMNSLKPEDTAVYYCAADYISVYGYEYYYWGQGTQVTVSS”, the “polyreactivity (PSR sort gate)” value is reported as “high polyreactivity”.
In the case of “QEQLQESGGGLVQAGGSLRLSCAASGSISGSSTMGWYRPAPGKERELVASIAVGANTNYADSAKGRFTISRDNAKNTVYLQMNSLKPEDTAVYYCAVDYYIYYFHYWGQGTQVTVSS”, the “polyreactivity (PSR sort gate)” value is reported as “high polyreactivity”.
With “QVQLVESGGGLVQAGGSLRLSCAASGSTFDIYAMGWYRQAPGKERELVAAITVSGGSTYYADSVKGRFTISRDNAKNTVYLQMNSLKPEDTAVYYCNADWSGWQGWYNYWGQGTQVTVSS” the “polyreactivity (PSR sort gate)” value was “low polyreactivity”.
With “QVQLVESGGGLVQAGGSLRLSCAASGSIFYSYAMGWYRQAPGKERELVADITITGSTYYADSVKGRFTISRDNAKNTVYLQMNSLKPEDTAVYYCDAVLAPGGYDYWGQGTQVTVSS” the “polyreactivity (PSR sort gate)” value was “low polyreactivity”.
With “QVQHVESGGGLLQAGGSLRLSCAASGRIFWINAMGWYIQAPGKERELVATISSGSTSYADSVKGRFTITRDNAKNTVYLQMNSLKPEDTAVYYCAVSLRYTRSGAYDYWGQGTQVTVSS” the “polyreactivity (PSR sort gate)” value was “low polyreactivity”.
For “QVQLVESGGGLVQAGGSLRLSCAASGRTFVRNAMGWYRQAPGKERELVAGITRSGGSTYYADSVKGRFTISRDNAKNTVYLQMNSLKPEDTAVYYCAKRYDVYVGTVRPYDYWGQGTQVTVSS”, the “polyreactivity (PSR sort gate)” value was “low polyreactivity”.
In the case of “QVQLVESGGGLVQAGGSLRLSCAASGRTFAPNTMGWYRQAPGKERELVATITVSGGITYADSVKGRFTISRDNAKNTVYLQMNSLKPEDTAVYYCAARTPGWYLPRDYWGQGTQVTVSS”, the “polyreactivity (PSR sort gate)” value is reported as “low polyreactivity”.
With “QVQLVESGGGLVQAGGSLRLSCAASGSIFGEYVRGWYREAPGKERELVADISWRDGDTYYADSEKGRFTISRDNAKNTVYLQMNSLKPEDTAVYYCAADVIVPESYGYWPLSYYYWGQGTQVTVSS” the “polyreactivity (PSR sort gate)” value was “low polyreactivity”.
In the case of “QVKLVESGGGLVQAGGSLRLSCAASGIIFQYYAMGWYRQAPGKESELVAAISWSGGSTYYADSVKGRFTISRDNAKNTVYLQMNSLKPEDTAVYYCAARSRSYWPYEGYYWGQGTQVTVSS”, the “polyreactivity (PSR sort gate)” value is reported as “low polyreactivity”.
With “QVQLVESGGGIVQAGGSHRLSCAASGRTFYRYAMGWYRQAPGTERELVAAITRRSGNTYYADSVKGRFTISRDNAKNNVYLQMISLKPEDTAVYYCAADPETWSPHYESLGYYWGQGTQVTVSS” the “polyreactivity (PSR sort gate)” value was “high polyreactivity”.
In the case of “QVQLVDSGRGLVQAGGSLRLSCASSGSTFRDYAMGWYRQAPGKETELVAVITWNGGSTYYADSVKGRFTISRDNAKNTVYLEMNSLKPEDTAVYYCGAVYPRSLSTEYYYWGQGTQVTVSS”, the “polyreactivity (PSR sort gate)” value is reported as “high polyreactivity”.
For “QVQLVESGGGLVQAGGSLRLSCAASGRIFAHNAMGWYRQPPGKARELVAAITWSGGSTYYADSVKGRFTISRDNAKKTVYLQMNSLNPEDTAVYYCNNDSHGHLYNYWGQGTQVCVSS”, the “polyreactivity (PSR sort gate)” value was “low polyreactivity”.
With “QVQLVESGGGLVQAGGSLRLSCAASGRTFGRYTMGWYRQAPGKERELVAAITGRGGSTFYADSVKGRFTISRDYAKNTVYLQMNSLKPEDTAVYYCAARRTSIKDQFYYWGQGTQVTVSS” the “polyreactivity (PSR sort gate)” value was “high polyreactivity”.
